{"source": "paper PMC6252174", "about": "(Nature structural & molecular biology, 2018)", "molecular_target": "the molecule itself", "assay": "cryo-EM structure", "data": [{"protein": "Xenopus tropicalis TRPV4 crystallization and cryo-EM construct TRPV4_(cryst) (133–797 N647Q) (domain or fragment, UniProt A0A6I8RQZ3 133-797, looked up) APSPDPPPVIKMFNRHMLFDIVSRGSTAELEGFLPFLLAQKKRLTDEEFREASTGKTCLTKALMNLNGGKNDTIPMLIDIAEKTGNLREFINSPFRDVYYRGQTALHIAIERRCKHYVELLVEKGADVHAQARGRFFQPKDEGGYFYFGELPLSLAACTNQPDIVHYLTENAHKKADIRRQDSRGNTVLHALVAIADNTRENTKFVTKVYDLLVIKCVKLYPDSSLEAIFNNDSMSPLMMAAKLGKIGIFQHIIRLEIKDEEARHLSRKFRDWAYGPVYSSLYDLSMLDTCGEEVSVLEILVYNSKVENRHEMLAVEPINELLRDKWQKFGAVSFYISVVSYLIAMIIFTLIAYYRPMDGTPPYPYRTTMDYMRLAGEIVTLLTGVVFFITNIKDLFMKKCPGVNSLFIDGSFQLLYFIYSVLVIITAVLYLVGIESYLAVMVFALVLGWMNALYFTRGLKLTGTYSIMLQKILFKDLFRFLLVYLLFMIGYASALVSLLNPCTSQESCIETSSQCTVPEYPSCRDSSTFSKFLLDLFKLTIGMGDLEMINSAKYPAVFIILLVTYIILTFVLLLNMLIALMGETVGQVSKESKQIWKLQWATTILDIERSFPVCMRKAFRSGEMVTVGKNLDGTPDRRWCFRVDEVNWSHWNQNLGIINEDPGR", "values": [{"measurement": "stoichiometry N", "value": 4}]}]}
